# Data taken from paper PMC5013695.
# Target: 14-3-3β (UniProt Q9CQV8)
# Assay: co-IP with anti-FLAG beads, 14-3-3β blot
# Settings: reference: FLAG-Bmal1 wild type; sites S42
# Sequence of UniProt Q9CQV8 (Q9CQV8 whole entry, looked up): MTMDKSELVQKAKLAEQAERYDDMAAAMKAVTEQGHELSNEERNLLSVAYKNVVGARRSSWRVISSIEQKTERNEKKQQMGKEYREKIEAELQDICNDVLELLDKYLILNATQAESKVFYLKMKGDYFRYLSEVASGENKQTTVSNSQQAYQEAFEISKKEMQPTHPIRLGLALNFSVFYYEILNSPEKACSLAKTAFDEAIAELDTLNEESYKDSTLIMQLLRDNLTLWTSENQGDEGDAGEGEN
substance,measurement,value
Bmal1 (from UniProt Q9WTL8-4) FLAG-Bmal1 S42A,binding against the reference,weaker
